Test results reported in paper PMC3536697.
Values joined by “and” are separate entries in the source; they are usually repeats but may differ in a detail not shown here. Equal values may be shown once. Values belong to the substance of their own block, whether it stands above or below them.

Tests used:
[1] = biological target: SUMO-CgCdc13-FLAG fusion protein (Candida glabrata Cdc13) (Candida glabrata); experiment: Western analysis of serial dilutions with anti-SUMO antibodies; serial three fold dilutions of the purified CST complex; SUMO tag present in both the Cdc13 and Stn1 fusions
[2] = biological target: SUMO-CgCdc13-FLAG fusion protein (Candida glabrata Cdc13) (Candida glabrata); experiment: co-sedimentation; purified CST complex on a 15-30% glycerol gradient; fractions by Western with anti-SUMO (Cdc13, Stn1) and anti-GST (Ten1); 500 kDa fraction also in serial two fold dilutions with anti-SUMO
[3] = biological target: SUMO-CgCdc13-FLAG fusion protein (Candida glabrata Cdc13) (Candida glabrata); experiment: Coomassie staining intensities of the subunits in SDS-PAGE against BSA standards; purified CST complex (M2 fractions); intensities assumed proportional to molecular weights
[4] = biological target: SUMO-CgCdc13-FLAG fusion protein (Candida glabrata Cdc13) (Candida glabrata); experiment: co-IP; extract of E. coli co-expressing SUMO-Cdc13-FG and HIS6-SUMO-Stn1 (CS) on M2 (anti-FLAG) resin; Coomassie and Western (anti-FLAG, anti-HIS6)
[5] = system: CaStn1N K98E/K170E;CaTen1 (Candida albicans;Candida albicans); experiment: UV crosslinking; conditions: single Iodo-dU; EMSA: 10 mM Tris-HCl pH 8.0, 2 mM MgCl2, 1 mM spermidine, 1 mM DTT, 10% glycerol, 22 C; UV crosslinking: 50 mM Hepes-NaOH pH 7.5, 10% glycerol, 30 mM …
[6] = system: CaStn1N;CaTen1 (Candida albicans;Candida albicans); experiment: UV crosslinking; conditions: reference; normalized to Ten1 adduct; single Iodo-dU; EMSA: 10 mM Tris-HCl pH 8.0, 2 mM MgCl2, 1 mM spermidine, 1 mM DTT, 10% glycerol, 22 C; UV crosslinking: 50 mM Hepes-NaOH pH 7.5, 10% glycerol, 30 mM …
[7] = biological target: Cdc13 (CST subunit);Stn1;Ten1 (Candida glabrata;Candida glabrata;Candida glabrata) (UniProt Q6FM89); experiment: competition; conditions: labeled CgTELX1 7.5 nM, CST 10 nM; EMSA: 10 mM Tris-HCl pH 8.0, 2 mM MgCl2, 1 mM spermidine, 1 mM DTT, 10% glycerol, 22 C; UV crosslinking: 50 mM Hepes-NaOH pH 7.5, 10% glycerol, 30 mM …
Cdc13 (Candida glabrata) = experiment: competition; conditions: labeled CgTELX1 7.5 nM, Cdc13 6 nM; EMSA: 10 mM Tris-HCl pH 8.0, 2 mM MgCl2, 1 mM spermidine, 1 mM DTT, 10% glycerol, 22 C; UV crosslinking: 50 mM Hepes-NaOH pH 7.5, 10% glycerol, 30 mM …

stoichiometry N (Stn1 per Cdc13) [1]: 2.5
stoichiometry N (Stn1 per Cdc13) [2]: 2.5
stoichiometry N (Stn1 per Cdc13) [3]: 2 and 3 and 2.5
stoichiometry N (Stn1 per Cdc13) [4]: 2 to 3
Substance: HIS6-SUMO-CgStn1 fusion protein (Candida glabrata Stn1) (natural protein)

Substance: C. albicans telomere IdU oligo
binding signal (fold reduction vs WT) [5]: 3
binding signal (fraction of WT Stn1N crosslinking) [6]: 1

Substance: TCTTTAGGGAGGTACTGATGTTCTTTAGGGAGGTACTGATGT [ClTELX2]
binding signal (fold more competitor than CgTELX1) [7]: 20
binding signal (fold more competitor than CgTELX1) (Cdc13 (Candida glabrata)): 20

Substance: TTAGGATCCATGAAAACTGAAGAAGGTAAACTGGTA [R1]
binding signal (fold more competitor than CgTELX1) [7]: > 200
binding signal (fold more competitor than CgTELX1) (Cdc13 (Candida glabrata)): > 200

stoichiometry N [2]: 2
Substance: SUMO-CgCdc13-FLAG fusion protein (Candida glabrata Cdc13) (natural protein)

Substance: CGGTGTAAGGATGCACTTGAAACTCGGTGTAAGGATGCACTTGAAACT [LeTELX2]
binding signal (fold more competitor than CgTELX1) [7]: > 200
binding signal (fold more competitor than CgTELX1) (Cdc13 (Candida glabrata)): > 200
